Data: article PMC2602806
Read-outs that look alike come from different tables or passages of the source.

Legend:
Test in all cases: X-ray crystallography
[1] = molecular target: T1, VP1 RNA-dependent RNA polymerase (cVP1) (Simian rotavirus A SA11 (group A; …, UniProt O37061 1-1088)
T1 sequence: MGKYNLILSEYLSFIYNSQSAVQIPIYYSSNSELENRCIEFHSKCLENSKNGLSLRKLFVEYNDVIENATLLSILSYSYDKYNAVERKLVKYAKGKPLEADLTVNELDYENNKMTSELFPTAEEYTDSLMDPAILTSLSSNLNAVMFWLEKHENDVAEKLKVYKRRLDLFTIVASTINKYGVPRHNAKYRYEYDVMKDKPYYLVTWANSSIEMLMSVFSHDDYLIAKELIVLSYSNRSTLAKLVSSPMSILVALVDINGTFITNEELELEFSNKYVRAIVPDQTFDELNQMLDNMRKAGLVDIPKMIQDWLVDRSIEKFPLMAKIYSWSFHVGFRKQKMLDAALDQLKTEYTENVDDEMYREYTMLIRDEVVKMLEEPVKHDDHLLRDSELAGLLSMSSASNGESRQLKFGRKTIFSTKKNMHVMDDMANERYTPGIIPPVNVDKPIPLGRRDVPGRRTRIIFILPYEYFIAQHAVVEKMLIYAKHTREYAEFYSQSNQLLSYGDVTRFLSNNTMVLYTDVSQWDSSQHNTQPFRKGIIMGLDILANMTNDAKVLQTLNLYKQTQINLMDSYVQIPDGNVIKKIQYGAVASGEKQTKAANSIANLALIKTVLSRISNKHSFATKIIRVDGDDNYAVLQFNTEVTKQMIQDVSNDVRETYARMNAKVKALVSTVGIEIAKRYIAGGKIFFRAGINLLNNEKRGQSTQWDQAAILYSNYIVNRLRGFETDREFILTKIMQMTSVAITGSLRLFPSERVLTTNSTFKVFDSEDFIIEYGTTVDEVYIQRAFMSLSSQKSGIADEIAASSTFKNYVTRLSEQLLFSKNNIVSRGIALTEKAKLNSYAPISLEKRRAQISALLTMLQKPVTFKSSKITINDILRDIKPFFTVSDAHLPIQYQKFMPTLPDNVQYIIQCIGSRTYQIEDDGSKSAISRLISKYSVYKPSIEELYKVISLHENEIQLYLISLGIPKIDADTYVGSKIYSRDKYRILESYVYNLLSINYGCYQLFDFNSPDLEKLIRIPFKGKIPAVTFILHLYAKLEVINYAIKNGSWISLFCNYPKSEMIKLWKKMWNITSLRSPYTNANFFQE

[2] = molecular target: T1, VP1 RNA-dependent RNA polymerase (cVP1); remark: listed apart in the source
[3] = molecular target: T1, VP1 RNA-dependent RNA polymerase (cVP1); remark: listed apart in the source
[4] = molecular target: T1, VP1 RNA-dependent RNA polymerase (cVP1); remark: listed apart in the source
[5] = molecular target: T1, VP1 RNA-dependent RNA polymerase (cVP1); remark: listed apart in the source

B1: 3'CS+ wild type (ssRNA)
RNA: UGUGACC
[1]
  binding result: binds

B2: 3'CS+ A-insertion (ssRNA)
RNA: UGUGAACC
[2]
  binding result: binds

B3: 3'CS+ A3-deletion (ssRNA)
RNA: UGUGCC
[3]
  binding result: binds

B4: 3'CS- (ssRNA)
RNA: AAAAGCC
[4]
  binding result: binds

B5: 5'CS+ (ssRNA)
RNA: GGCUUU
[5]
  binding result: binds
